Results reported in paper PMC9242090 (The Journal of Experimental Medicine, 2022).
Positions count from the first letter of the chain named. No end group written: not given here.

T1: Peptide 29 (Pep29) (Plasmodium falciparum 3D7, also: biotin, position not given here)
T1 chain: NANPNANPNANPNAN

B1: CIS43_Var11 Fab (Fab, V domains shown)
VH: QRQLVQSGAEVKKPGASVKVSCKASGYTFTSYAIHWVRQAPGQRLEWMGWIKAGNGNTRYSQKFQDRVTITRDTSTTTAYMELSSLRSEDTAVYYCALLTVLTPDDAFDIWGQGTMVTVSS
VL: not shown
B2: CIS43_Var18 Fab (Fab, V domains shown)
VH: B1 VH with A97V
VL: not shown

Molecular target: T1, Peptide 29 (Pep29)
Experiment: BLI

Binder	binding result
B1	binds
B2	binds
